Data reported in PMC11578589.

How the values were obtained:
[1] = test system: IGF2BP2 KH34 (IGF2BP2KH34) (Homo sapiens); assay: MST; conditions: MST: 50 mM phosphate pH 7.0, 150 mM NaCl, 0.05% Tween 20, room temperature, 20 min incubation, 250 nM labeled RNA
[2] = test system: IGF2BP2 RRM (IGF2BP2RRM) (Homo sapiens); assay: MST; conditions: MST: 50 mM phosphate pH 7.0, 150 mM NaCl, 0.05% Tween 20, room temperature, 20 min incubation, 250 nM labeled RNA

Substance | Kd [1] | Kd [2]
ZIKV 3' NTR | 418 nM | 1600 nM
ZIKV 5' NTR | 203 nM | –
